Values joined by “and” are separate entries in the source; they are usually repeats but may differ in a detail not shown here. Identical values can stand only once. Each block holds one molecule with its values, some of them ahead of it.
Experiments:
[1] = molecular target: recombinant hCD47-Fc (human) (UniProt Q08722); assay: SIRPα blocking ELISA: plate-bound hCD47, labelled competitor recombinant hSIRPα
[2] = molecular target: recombinant human FcγR1A, histidine-tagged (human) (UniProt P12314); assay: SPR (ProteOn XPR36); His-tagged FcγR1A immobilized, binder as analyte
Sequence of recombinant human FcγR1A, histidine-tagged (human) (P12314 16-288): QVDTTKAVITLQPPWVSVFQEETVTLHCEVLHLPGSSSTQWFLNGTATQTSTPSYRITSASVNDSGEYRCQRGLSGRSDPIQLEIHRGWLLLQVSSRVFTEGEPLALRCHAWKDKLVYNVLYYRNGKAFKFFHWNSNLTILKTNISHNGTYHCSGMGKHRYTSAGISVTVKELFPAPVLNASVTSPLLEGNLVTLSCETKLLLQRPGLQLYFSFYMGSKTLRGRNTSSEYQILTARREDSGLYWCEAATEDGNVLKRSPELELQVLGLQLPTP

[3] = molecular target: T1, recombinant mouse CD47 (mouse, UniProt Q61735 19-140, limits assumed); assay: dual ELISA: coat mCD47-Fc, detect mCD40-His, tertiary anti-his-HRP
T1 construct: also called mCD47-Fc
T1 sequence (looked up): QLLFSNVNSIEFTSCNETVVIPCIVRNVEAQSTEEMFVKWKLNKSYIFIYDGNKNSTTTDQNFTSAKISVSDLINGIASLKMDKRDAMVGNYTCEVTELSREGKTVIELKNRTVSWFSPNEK
Procedure: Plates were washed with TBS-T (Tris-buffered saline containing 0.1% Tween 20) and then detection antibody was added for 1 hour at room temperature in the dark. Detection antibodies included anti-hIgG-HRP, anti-mIgG-HRP, anti-hCD40L, anti-mCD40L, and then anti-Goat-HRP (all antibodies were obtained from Jackson ImmunoResearch Laboratories or R&D Systems). Plates were washed again and SureBlue TMB Microwell Peroxidase Substrate (KPL; purchased from VWR, catalog no. 95059-282) was added to each well and allowed to incubate at room temperature in the dark. To stop the reaction, 1N sulfuric acid was added to each well and absorbance at 450 nm was read immediately on a BioTek plate reader. Samples were run at a minimum in triplicate and at multiple dilutions.

[4] = molecular target: T2, recombinant human CD40, histidine-tagged (human, UniProt P25942 21-193); assay: SPR (ProteOn XPR36); His-tagged CD40 immobilized, binder as analyte
T2 construct: Immobilized ligand in SPR and coating reagent in the single-sided ELISA; also called CD40 (AcroBiosystems); hCD40-His; not shown: histidine tag
T2 sequence (P25942 21-193 limits assumed): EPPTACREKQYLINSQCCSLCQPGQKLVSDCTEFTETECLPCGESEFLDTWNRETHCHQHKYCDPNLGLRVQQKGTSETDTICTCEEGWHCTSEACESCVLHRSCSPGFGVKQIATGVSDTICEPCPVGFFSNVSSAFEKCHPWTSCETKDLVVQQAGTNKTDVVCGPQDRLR

Sequence of recombinant hCD47-Fc (human) (Q08722 19-139 limits assumed): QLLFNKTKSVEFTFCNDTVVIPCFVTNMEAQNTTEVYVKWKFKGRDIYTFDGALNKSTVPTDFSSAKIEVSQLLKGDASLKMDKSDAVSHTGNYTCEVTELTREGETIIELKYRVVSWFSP

Molecule: anti-human CD47 blocking antibody, clone CC2C6 (BioLegend)
IC50 (read off the curve) [1]: 10 nmol/L

Molecule: human IgG1 (positive control for Fcγ receptors and FcRn) (antibody)
Kd [2]: 8.42 nM | koff [2]: 0.000156 s⁻¹ | kon [2]: 18400 M⁻¹ s⁻¹

Other lines, results leading:

EC50 [3]: 7.37 nM and 8.73 nM
B1: murine SIRPα-Fc-CD40L chimeric protein surrogate (Fc fusion)
chain: KELKVTQPEKSVSVAAGDSTVLNCTLTSLLPVGPIRWYRGVGPSRLLIYSFAGEYVPRIRNVSDTTKRNNMDFSIRISNVTPADAGIYYCVKFQKGSSEPDTEIQSGGGTEVYVLAKPSPPEVSGPADRGIPDQKVNFTCKSHGFSPRNITLKWFKDGQELHPLETTVNPSGKNVSYNISSTVRVVLNSMDVNSKVICEVAHITLDRSPLRGIANLSNFIRVSPTVKVTQQSPTSMNQVNLTCRAERFYPEDLQLIWLENGNVSRNDTPKNLTKNTDGTYNYTSLFLVNSSAHREDVVFTCQVKHDQQPAITRNHTVLGFAHSSDQGSMQTFPDNNATHNWNVPRDCGCKPCICTVPEVSSVFIFPPKPKDVLTITLTPKVTCVVVDISKDDPEVQFSWFVDDVEVHTAQTQPREEQFNSTFRSVSELPIMHQDWLNGKEFKCRVNSAAFPAPIEKTISKTKGRPKAPQVYTIPPPKEQMAKDKVSLTCMITDFFPEDITVEWQWNGQPAENYKNTQPIMNTNGSYFVYSKLNVQKSNWEAGNTFTCSVLHEGLHNHHTEKSLSHSPGKHRRLDKVEEEVNLHEDFVFIKKLKRCNKGEGSLSLLNCEEMRRQFEDLVKDITLNKEEKKENSFEMQRGDEDPQIAAHVVSEANSNAASVLQWAKKGYYTMKSNLVMLENGKQLTVKREGLYYVYTQVTFCSNREPSSQRPFIVGLWLKPSSGSERILLKAANTHSSSQLCEQQSVHLGGVFELQAGASVFVNVTEASQVIHRVGFSSFGLLKL
notes: also called mSIRPα-Fc-CD40L; mouse SIRPα-Fc-CD40L

Kd [4]: 1.15 nM | koff [4]: 0.000351 s⁻¹ | kon [4]: 304000 M⁻¹ s⁻¹
B2: recombinant hCD40L-Fc (positive control analyte) (Fc fusion, human, UniProt P29965 116-261, looked up)
chain: GDQNPQIAAHVISEASSKTTSVLQWAEKGYYTMSNNLVTLENGKQLTVKRQGLYYIYAQVTFCSNREASSQAPFIASLCLKSPGRFERILLRAANTHSSAKPCGQQSIHLGGVFELQPGASVFVNVTDPSQVSHGTGFTSFGLLKL
notes: also called hCD40L-Fc (AcroBiosystems); not shown: Fc part of a bought fusion

— patent US20250320268A1 (SHATTUCK LABS, published 2025)
